Results reported in patent US20220256794A1, “TERPENE SYNTHASES AND TRANSPORTERS” (The State of Israel, Ministry of Agriculture & Rural …, priority 2019, published 2022).

Experiments:
yeast cells = assay: Yeast growth (turbidity A600) in the presence of CBD; format: cell-based, Saccharomyces cerevisiae (strain Y1HGold); conditions: 0.5 mM CBD, 7-12 hours, FIG. 2
Description: The genes were expressed in yeast and tobacco. For yeast, the ABC and PTR Transporter genes were synthesized by the TWIST Co, cloned and expressed (individually) in the yeast expression vector pESC-URA (Agilent Technologies) for expression under the yeast native gal-10 promoter. Competent Saccharomyces cerevisiae (strain Y1HGold, CloneTech) cells were prepared, transformed by each of the resulting vector and selected on yeast synthetic media lacking Uracil as previously described [GietzR. D., Methods Mol. Biol. (2014) 1205:1-12].
An alternative method is to measure the yeast growth as a function of turbidity. Transformed yeast cells were grown on URA-glucose broth at 30° C. at 200 RPM, and after 24 hours 100 μl was used to inoculate 5 ml of URA-galactose broth in the same conditions till O.D.600 of 1.5. The yeast was further diluted to OD600=0.05 with 10 ml URA-galactose, and divided into two 5 ml aliquots into separate 50 ml falcon tubes. The first falcon (control) was added 78 μl acetonitrile (the solvent that the CBD was dissolved in), and the second one was added 78 μl CBD solution in acetonitrile (final CBD concentration=0.5 mM). […]

[1] = Terpene synthase activity assay with GPP; format: biochemical; conditions: TPS expressed in E. coli; 10 μM GPP, overnight at 30° C., SPME GC-MS
Description: Putative terpene synthase genes were synthesized by the TWIST Co., and cloned into Novagen pET-28a(+) with a 6×His tag at its' N-terminus. The recombinant plasmid was then sequenced for authentication and transformed into BL21(DE3) pLysS and pLysE strains of E. coli (Agilent Technologies) for heterologous expression. An overnight culture was used to inoculate a 20-200 mL culture, induced with 0.1 mM IPTG at an OD 600 nm >0,8 for initiation of recombinant protein translation then incubated at 18° C. and 250 RPM overnight. The cells were collected by centrifugation and the recombinant enzymes were extracted either as a crude extract or purified on a Ni-NTA agarose resin as previously described [Gonda I. et al., The Plant Journal (2013) 61, 458-472].
To determine the terpene synthase catalytic activity, reaction mixtures containing 100 μl of protein extract or purified protein were incubated overnight at 30° C. with either 10 μM geranyl diphosphate (GPP) or farnesyl diphosphate (FPP), in a final volume of 200 μl using a buffer containing 50 mM bis-tris, pH 6.9, 1 mM DTT, 10% (v/v) glycerol, 0.1 mM of MnCl2 and 10 mM of MgCl2. The volatiles produced were extracted by solid-phase microextraction (SPME) according to the methodology previously described [Iijima Y. et al., Plant Physiol (2004) 136: 3724-3736]. As controls, reactions were carried out without the cofactors MnCl2 and MgCl2, or protein extracts were heat inactivated by incubation at 100° C. for 5 minutes, or a short peptide product of an empty pET100 vector was utilized.
For solid-phase microextraction (SPME) analysis, a 57298-U SPME fiber assembly Divinylbenzene/Carboxen/Polydimethylsiloxane (DVB/CAR/PDMS, Supelco) needle size 23 ga, StableFlex, was used with an autosampler and analyzed by GC-MS as previously described [Davidovich-Rikanati R. et al., Nature Biotech (2007) 25:899-901; Davidovich-Rikanati R. et al., Plant J (2008) 56:228-238]. The SPME fiber were adsorbed for 30 min. by automatic HS-SPME at 50° C. followed by injection of the fiber into a GC-MS injection port for 5 min. (splitless), for desorption of the volatiles. Chiral separation was conducted on a Restek Rt™-bDEXsm column (30 m length 0.25 mm i.d., 0.25 μm film thickness, 2,3-di-O-methyl-6-O-tert-butyl dimethylsilyl beta cyclodextrin added into 14% cyanopropylphenyl/86% dimethyl polysiloxane). Helium (0.8 ml min-1) was used as a carrier gas with splitless injection. The injector temperature was 250° C., and the detector temperature was 230° C. The following conditions were used: initial temperature 40° C. for 5 min., followed by a ramp of 2° C./min. to 110° C., and 10° C./min up to 230° C. (5 min.). A quadrupole mass detector with electron ionization at 70 eV was used to acquire the MS data in the range of 41 to 350 m/z. The identification of the volatiles was assigned by comparison spectral data with the W10N11 and HPCH2205 GC-MS libraries and with authentic standard when available.

| Molecule | inhibition of yeast growth in response to CBD, transporter-expressing yeast vs control yeast (yeast cells) | Monoterpenes produced with GPP [1] |
| --- | --- | --- |
| T-AG2575-2: Cannabis ABC-G transporter gene product, amino acid SEQ ID NO: 56 (protein, ABC+PTR Transporter amino acid sequence (of the 12 identified gene products)) MEVGDLYRAGNSLRNISLRSSTSSVWRGNNNNNNNKDEYFSKSRREDDINDEEALTWAALEKLPTYDRLRKGILTTSKGETTEVDVINLGFKQRKDLLQRLVNVADEDNESFLLKLKQRIQTVGIDLPTIEVRFENVKVEADVHVGSRALPSFINFCINIIEMLVSFLPILKSKKKHVTILDDVSGAIKPGRLTLLLGPPSSGKTTLLLTLAGKLASELKFSGRVTYNGHEMNEFIPQRTAAYISQHDVHIGEMTVRETLSFSARCQGVGTRYEMLAELSRREKEANIKPDPDIDIFMKATSTEGQKSSVVTDYVLKILGLEVCADTVVGDEMLRGISGGQRKRVTTGEMLVGPSGVLFMDEISTGLDSSTTYQIVNSLKQYVHIFNGTNVISLLQPAPETYDLFDDIILLSDGHIVYQGPRENVLEFFEFTGFKCPERKAIADFLQEVTSKKDQAQYWTRGDEAYRFVSAKEFVEAFKSFHVGQKIREYLSTPFDKTKSHPAALTTKNFGLNKMELLKACMSREYLIMKRNSFVHIFKIVQLSVMGLIHGTLFLRTKMHHRTLEDGTIYLGSLFFAALMIMFNGMSEIPMTIAKLPVFYKQRDLQFFPAWAYAVPSMLFKVPIAFLEVAVWIILTYYTTGLEPSVVRMFRLYFILVIVNQMASGLFRSIAALSRNMIIANTFGAFSLLLLFVLGGFVLSRDDINSGWIWAYWVTPLMYGQTGILVNEFRGSKWNKVTPNSTETLGIQVLKSKGFFTDSYWYWLGFGVLVAYTVLFNILYTLALNYLNSIEKSQALSNEDPENNDHEIQVGRETRTNEIQQTSSINNTGENQSKKKGMILPFEPHSITFNDVIYSVDMPQAMKNQGVVEDKLVLLKGVSGSFRPGVLTALMGISGAGKTTLMDVLAGRKTGGYIEGDIRISGYPKKQETFARISGYCEQNDIHSPHVTVYESLLYSAWLRLPTEVDSEKRKMFIEEVMELVELTPLRQALVGLPGVSGLSTEQRKRLTIAVELVANPSIIFMDEPTSGLDARAAAIVMRTVRNTVDTGRTVVCTIHQPSIDIFEAFDELFLMKRGGEEIYVGPLGRHSCHLINYFEAIEGVSKIKNGYNPGTWMLEVSSSAQEIALGVDFANIYKNSELCKRNKDLIKELSSPAPGSKDLYFPTQFSRSLNTQCIACLWKQRQSYWRNPLYTAVRFMFTTFIALIFGTVFWDLGSKRSNIQDLSNALGSMYCAVLFIGIQNASSVQPVVSVERSVFYREKAAGMYSAFPYSFGQLVVEIPYILCQSVVYCLIVYAMIGFEWTAIKFFWFLFFSFFSMLYFTFYGMMAVGITPNNHIASIVSSAFYSVWNLFSGFIIPRTRMPVWWKWYYWGCPVSWTLYGLLVSQYGDVDDVINAVTGETVKQYLRSYLGYKHDFIGVVAVVNVLFALLFGSIFAFSVKILNFQNR | reduced inhibition of growth | – |
| 792-7: Cannabis terpene synthase gene product, amino acid SEQ ID NO: 12 (protein, Terpene Synthase Gene Amino acid sequence of the 45 identified gene products) MSPCEATIDEKRPNMPKFTPTIWGDYFMSSASNHHHSSLMETMENNNKESYEKIIEMKEQVKNKLLHGLHPLENPLETLEYIDDIQRLGLSYYFENEIEQNLEQFHNNYQNLIDFGDNNLYADALCFRLLRQQGYNIACDIFDKYKNEKGKFKESISSDIRGMLNLYEAAQMRVHGEKILDEALIFTTTHLESSVKTCQLSSPYLDLVKHALMHPIRKSLQRREARLYISLYHQLPSHEEILLTLAKLDFNLLQKLHQKELSYITRWWKEFDYKSKHSFIKDRIVECYFWVYGVFFEAETSQIRLIITKLIAILTIIDDAYDSFGTLEELEPFTQAIERWDICAIDTLPEYMKIFYMKLLEIYNEIEQFSKERSYCPSYAKKGVQSLIRAYFKEAKWLHTKYIPTLDEYMPVGVDSAGSFMLISMVFIGMGDIVTKHSMDWIFSNPQPKIIQTMAIVGRVMNDIGYHKSERKKSSGEIVASTVECYMKQYGVTGEEAIEKLSEQVKDSWKDLNEDLLNPITIPRPLLMQVLKLVRVNHEIYREGDGFTQPTLLKNLIHSLIINPIDF | – | beta-myrcene/geraniol |
| 795-1: Cannabis terpene synthase gene product, amino acid SEQ ID NO: 18 (protein, Terpene Synthase Gene Amino acid sequence of the 45 identified gene products) MITGVISSSTTIFKEQPEAIVRRSGNYKPTLWDAHFFKSLQVIYTEESYGKRINELKEDVRRILEKEAENPLVKLEQINDLSRLGISYHFEDQIKTILNLTFNNNNALWKKDNLYATALHFKLLRQYGFNPVSSEVFNAFKDQKKEFKESLSKDVKGMVCLYEASFYSFRGEPILDEARDFTTKHLKQYLMTRQCQTKSVDHDDDHDLVKLVEHALDLPLHWRLPRLEARWFIDMYAERNYDMNPTFLDFAKLDYNFVQSAYQKELKYISRWWSGSRLTERLPFARDRVVEIFYSAVALKYEAEFGFVRTVMTKIGLLLTLMDDIYDVYGTLDELQLFLGAIERWNINELDQLPDYMKILFVAFYNNVNEISYYVLKENGIHIIKYLKKALGDLCKCYMEEAKWFHSGHIPSLEEFIENGWKSITIPLCLIYHYCLITTSITEQDMEHLLQYPTILRVSGTVFRFIDDLGTSSDELERGDNPSSIQCYMREKGVSENESREHIWNLISEGWKEINEVKASNSPYSQVFIESAIDFVRGAMEMYHKGDGFGTNQDRYLKTKVVNMFFDPIPI | – | geraniol |
| 796-3: Cannabis terpene synthase gene product, amino acid SEQ ID NO: 23 (protein, Terpene Synthase Gene Amino acid sequence of the 45 identified gene products) MDTQRKLQAEQLSCPTKSHELIFDHKSDHQRRSANYTPTIWKYDFLESLNNKYDSEEYKKRSEKLIEDVRHNIVETKDLKGMLELINTIRKLSLTYHFEDEVKKVLDKISSSNYYYNNKDIKDPRLVGDDLYLAALYFRLLRLHGYQVSQDIFVGYNSVDYKKGGGTHNITSTEVKVMIELLEASHVAFECEDTLTEAKALMEENLKIAFPDNCNKYIPKHEVVHALELPSHWRVQWFDVKWQIEAYRQHGDPDTNTTTTTSLLVDLAKLNFNIIQATLQKDLRELSSWWKNVGLSEKLEFARDRLVESFMCTVGLAFQPEYKSLRKCLTKVVNFILIVDDVYDVYGSLEELRHFTNAVNRWDVRETEELPDCMKICFQALYHTTCEIASEIETKNGCKLVLPNLKGAWTDFCKSLLMEAEWYHKGYIPSLEEYLSNAWISSSGPLLLLHSYLAMPNQTNTASSLDISKDLVYNISLIIRLCNDLGTSAAEQERGDAASSIVCYMQETKSSEEEARKHIREMIRKTWKKINKTCFSTCGSSSLSLSFIDIALNTARVAHSLYQSGDAFSAQHTDYKTHILSLLVHPLIPNK | – | geraniol |
